Reference: patent KR20220167207A
Substitutions are numbered along the chain they refer to.

T1: CADM1 peptide structure expressed on cells (CADM1 peptide, Myc tag, hinge, transmembrane domain, GFP) (human)
T1 sequence: DSRAGEEGSIRAVDH

B1: 4A2 (scFv, V domains shown)
VH: AVTLDESGGGLQTPGRALSLACKGSGFTFSSYAMNWVRQAPGKGLEFVAQITSSGRYTYYGTAVKGRATISRDNGQSTVRLQLNNLRAEDSGTYYCAKDAAAGYYDGATAGDIDAWGHGTEVIVSS
VL: LTQPSSVSANPGETVKITCSGGYNRYGWYQQKSPGSAPVTVIYSNNQRPSNIPSRFSGSKSGSTATLTITGVQAEDEAVYYCGSYDSSDGYAGIFGAGTTLTVL
B2: RH6 (scFv, V domains shown)
VH: B1 VH with R16G, A17G, A21V
VL: VTQPSSVSANPGESVKITCSGGSYSYGWYQQKSPGSAPVTVIYSNNQRPSNIPSRFSGSTSGSTSTLTITGVQADDEAVYFCGTFDSSTNAAFGAGTTLTVL
B3: 4A8 (scFv, V domains shown)
VH: B1 VH with R16G, A17G, A21V, G24A
VL: LTQPSSVSANLGGTVKITCSGGSGSNHYGWYQQKSPGSAPVTVIYSNNKRPSNIPSRFSGSKFGSTATLTITGVQADDEAVYYCGGYDSSAGYIGPFGAGTTLTVL
B4: RB11 (scFv, V domains shown)
VH: B1 VH with R16G, A17G, A21V
VL: LTQPSSVSANPGGTVKITCSGGSGSYGWFQQKAPGSAPVTLIYANTNRPSDIPSRFSGSKSGSTATLTITGVQVEDEAVYYCGSTDSSYVSIFGAGTTLTVL

Legend:
[1] = molecular target: CADM1 on small cell lung cancer cell lines H146 and H69 (human) (UniProt Q9BY67); assay: flow cytometry, 1 ug scFv on 5x10^5 H69 cells, PE anti-HA
[2] = molecular target: CADM1 on small cell lung cancer cell lines H146 and H69 (human) (UniProt Q9BY67); assay: flow cytometry, 1 ug scFv on 5x10^5 H146 cells, PE anti-HA
[3] = molecular target: T1, CADM1 peptide structure expressed on cells (CADM1 peptide, Myc tag, hinge, transmembrane domain, GFP) (human); assay: flow cytometry, 1 ug scFv on 5x10^5 cells with the CADM1 peptide structure, PE anti-HA

Row | Binder | 결합력 % [1] | 결합력 % [2] | 결합력 % [3]
1 | B1 | 29.1% | 10.2% | 16.3%
2 | B2 | 12% | 4.5% | 15.3%
3 | B3 | 61.1% | 9.7% | 14.7%
4 | B4 | 61.8% | 33.6% | 16%
